According to patent US20020082235A1:

Each substance was assayed against Hoxc-8 (in the transfected C3H10T1/2 and 2T3 cells) (assay: cell-based or functional assay).

Osteopontin promoter activity (OPN-266 luciferase reporter, C3H10T1/2 cells), 3 to 5 fold:
Smad1-L (aa 145-276) fused with a nuclear localization signal
Smad1-M (101-191) fused with a nuclear localization signal
Smad1-NL (amino acids 3-276) fused with a nuclear localization signal
